Test results reported in US20190352420A1 (Boehringer Ingelheim, published 2019).
Changes are numbered by the printed parent chain. Like-named read-outs stand apart in the source and are kept apart here.

B1: B2 (antibody, human IgG1, kappa, L234A L235A, V domains shown)
VH: EVQLVESGGGLVQPGGSLRLSCAASGLTFSSYVMSWVRQAPGKGLEWVSTISSGGVSTYYPDTVKGRFTISRDNSKNTLYLQMNSLRAEDTAVYYCAKRETARATGFAYWGQGTLVTVSA
VL: DIQMTQSPSSLSASVGDRVTITCKASQSVSDDVTWYQQKPGKAPKLLIYYASNRYTGVPSRFSGSGSGTDFTFTISSVQPEDIATYYCQQDYSSPWTFGGGTKLEIKR
notes: Humanized monoclonal antibody; also called anti-CD73 antibody B2
B2: C2 (antibody, human IgG1, kappa, L234A L235A, V domains shown)
VH: QVQLVQSGAEVKKPGDSVKVSCKASGYTFTTYWMHWVRQAPGQGLEWMGAIYPGLSDTTYSQKFKGKVTMTRDTSTSTVYMKLSSLRSEDTAVYYCARLLDYAMDYWGQGTLVTVSS
VL: DIQMTQSPSSLSASVGDRVTITCRASQDIRSYLNWHQQKPGKAPKLLIWYTSRLHSGVPSRFSGSGSGTDYTLTISSLEPEDFATYFCQQGETLPWTFGQGTKLEIKR
notes: Humanized monoclonal antibody; also called anti-CD73 antibody C2
B3: C1 (antibody, human IgG1, kappa, L234A L235A, V domains shown)
VH: B2 VH with L55F
VL: B2 VL
notes: Humanized monoclonal antibody; also called anti-CD73 antibody C1

How the values were obtained:
cell-bound CD73 [1] = target: T1, cell-bound CD73 (human, UniProt P21589 27-549); experiment: cell-based or functional assay
T1 sequence (looked up): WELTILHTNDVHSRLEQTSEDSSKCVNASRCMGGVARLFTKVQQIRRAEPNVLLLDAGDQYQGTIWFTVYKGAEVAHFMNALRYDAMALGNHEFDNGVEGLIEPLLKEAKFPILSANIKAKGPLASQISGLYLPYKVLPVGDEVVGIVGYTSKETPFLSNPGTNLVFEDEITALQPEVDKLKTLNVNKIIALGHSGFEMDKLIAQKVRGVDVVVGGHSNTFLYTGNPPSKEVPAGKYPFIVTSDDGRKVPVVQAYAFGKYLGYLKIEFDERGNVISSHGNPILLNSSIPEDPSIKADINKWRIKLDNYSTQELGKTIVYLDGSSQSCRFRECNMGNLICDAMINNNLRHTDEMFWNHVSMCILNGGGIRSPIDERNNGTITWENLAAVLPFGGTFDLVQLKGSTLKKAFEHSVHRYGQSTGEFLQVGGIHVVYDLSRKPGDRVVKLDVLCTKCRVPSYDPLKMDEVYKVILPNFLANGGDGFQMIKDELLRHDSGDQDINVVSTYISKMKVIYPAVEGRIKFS

non-cell-bound CD73 = target: T2, non-cell-bound CD73 (human, UniProt P21589 27-549, limits assumed); experiment: cell-based or functional assay
T2 sequence (looked up): T1 sequence (looked up)

[2] = target: T3, recombinant human CD73 protein (human, UniProt P21589 27-549, limits assumed); experiment: cell-based or functional assay
T3 sequence (looked up): T1 sequence (looked up)

cell-bound CD73 [3] = target: T1, cell-bound CD73; experiment: cell-based or functional assay; remark: listed apart in the source
cell-bound CD73 [4] = target: T1, cell-bound CD73; experiment: cell-based or functional assay; remark: listed apart in the source
cell-bound CD73 [5] = target: T1, cell-bound CD73; experiment: cell-based or functional assay; remark: listed apart in the source
cell-bound CD73 [6] = target: T1, cell-bound CD73; experiment: cell-based or functional assay; remark: listed apart in the source
cell-bound CD73 [7] = target: T1, cell-bound CD73; experiment: cell-based or functional assay; remark: listed apart in the source
human CD73-His = target: T4, human CD73-His (human, UniProt P21589 27-549); experiment: SPR (ProteOn XPR36), antibody captured on Protein A/G, dimeric human CD73-His as analyte, avidity format, 1:1 Langmuir fit
T4 construct: extracellular domain; The SPR analyte is only called 'human CD73-His' (non-covalent dimeric antigen); also called HuCD73 His tagged; HuCD73his20170303
T4 sequence: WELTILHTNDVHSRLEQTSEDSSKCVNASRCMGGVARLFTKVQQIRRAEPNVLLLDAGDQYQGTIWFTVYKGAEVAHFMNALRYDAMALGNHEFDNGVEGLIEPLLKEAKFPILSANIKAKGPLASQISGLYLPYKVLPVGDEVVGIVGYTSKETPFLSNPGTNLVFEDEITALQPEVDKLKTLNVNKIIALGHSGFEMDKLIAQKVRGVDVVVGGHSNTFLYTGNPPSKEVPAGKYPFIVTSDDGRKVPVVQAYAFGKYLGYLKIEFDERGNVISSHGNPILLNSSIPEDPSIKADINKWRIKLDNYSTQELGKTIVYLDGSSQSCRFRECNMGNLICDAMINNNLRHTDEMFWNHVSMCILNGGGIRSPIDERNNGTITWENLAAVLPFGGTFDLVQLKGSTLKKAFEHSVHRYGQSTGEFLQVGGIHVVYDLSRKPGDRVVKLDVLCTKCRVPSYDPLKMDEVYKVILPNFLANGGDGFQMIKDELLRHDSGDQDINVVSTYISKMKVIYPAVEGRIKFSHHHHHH
Protocol: For the avidity format, the experiment was performed on a Bio-Rad ProteOn XPR36 instrument. Antibodies were captured via Protein A/G and the non-covalent dimeric antigens were flowed over the captured surface. The running buffer for this experiment and all dilutions were prepared in PBS-T-EDTA. The GLM sensor chip was normalized and pre-conditioned as per the manufacturer's recommendations. The sensor chip was activated with an equal mixture of EDC/s-NHS in the horizontal direction for 300 s at a flow rate of 30 μL/min and immobilized with recombinant Protein A/G (50 μg/ml in 10 mM acetate pH 4.5) in the horizontal direction for 300 s at a flow rate of 30 μL/min resulting in about 5000 RU of Protein A/G on the surface. The sensor chip was deactivated with 1M ethanolamine-HCl in the horizontal direction for 300 s at a flow rate of 30 μL/min. The sensor chip was regenerated with 18 s of 0.85% phosphoric acid at a flow rate of 100 μL/min 2 times horizontally and 2 times vertically.
About 300 RU of antibody was captured on the Protein A/G surface vertically for 60 s at a flow rate of 30 μL/min. The capture surface was stabilized by injecting PBS-T-EDTA for 60 s at a flowrate of 100 μL/min horizontally. The analyte (human CD73-His) was injected horizontally over the captured antibody for 600 s at a flow rate of 30 μL/min with a dissociation of 1200 s. The concentrations of human CD73-His were 0 nM, 3.125 nM, 6.25 nM, 12.5 nM, 25 nM and 50 nM. The surface was regenerated by injecting 0.85% phosphoric acid for 18 s at a flow rate of 100 μL/min one time horizontally and one time vertically.
The interspot (interactions with sensor surface) and blank (PBS-T-EDTA or 0 nM analyte) were subtracted from the raw data.

mouse CD73 = target: T5, mouse CD73 (mouse, UniProt Q61503 29-551, limits assumed); experiment: SPR, mouse CD73 compared with human CD73 (reference)
T5 construct: also called murine CD73
T5 sequence (looked up): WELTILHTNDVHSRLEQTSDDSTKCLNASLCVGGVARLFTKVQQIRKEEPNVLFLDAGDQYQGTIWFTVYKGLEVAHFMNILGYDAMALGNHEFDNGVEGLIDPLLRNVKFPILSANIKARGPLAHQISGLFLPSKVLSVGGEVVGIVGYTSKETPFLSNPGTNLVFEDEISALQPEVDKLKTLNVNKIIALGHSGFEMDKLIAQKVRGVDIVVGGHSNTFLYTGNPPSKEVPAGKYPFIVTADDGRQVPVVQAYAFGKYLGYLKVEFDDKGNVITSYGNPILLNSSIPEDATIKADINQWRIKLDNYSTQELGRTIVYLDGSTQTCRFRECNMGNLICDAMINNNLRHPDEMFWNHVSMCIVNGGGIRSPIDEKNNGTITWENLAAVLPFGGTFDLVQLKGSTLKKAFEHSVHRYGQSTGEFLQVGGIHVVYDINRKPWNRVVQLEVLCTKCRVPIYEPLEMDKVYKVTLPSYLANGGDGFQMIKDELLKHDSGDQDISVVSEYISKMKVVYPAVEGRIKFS

Molecule | % of max. adenosine inhibition, washed Colo-201 cells (cell-bound CD73 [1]) | CD8 T cell proliferation [% of control], Donor A, 1 nM antibody (cell-bound CD73 [1]) | CD8 T cell proliferation [% of control], Donor B, 1 nM antibody (cell-bound CD73 [1]) | CD8 T cell proliferation [% of control], Donor C, 1 nM antibody (cell-bound CD73 [1]) | CD8 T cell proliferation [% of control], Donor D, 1 nM antibody (cell-bound CD73 [1]) | CD8 T cell proliferation [% of control], Donor E, 1 nM antibody (cell-bound CD73 [1]) | CD8 T cell proliferation [% of control], Donor F, 1 nM antibody (cell-bound CD73 [1]) | CD73 surface reduction [%] on Colo201 cells, 24 h, flow cytometry (cell-bound CD73 [1]) | IFNγ release [fold change over control], Donor A, 1 nM antibody (cell-bound CD73 [1]) | IFNγ release [fold change over control], Donor B, 1 nM antibody (cell-bound CD73 [1]) | % of max. adenosine inhibition, Colo-201 culture supernatant (non-cell-bound CD73) | IC90 of inhibition of CD73 enzymatic function (luciferase-based assay) [2] | CD73 surface reduction [%] on Colo201 cells, 24 h, flow cytometry (cell-bound CD73 [3]) | Max. adenosine inhibition [%] in Colo201 cells (cell-bound CD73 [4]) | CD8 T cell proliferation [% of control], Donor A, 1 nM antibody (cell-bound CD73 [5]) | CD8 T cell proliferation [% of control], Donor B, 1 nM antibody (cell-bound CD73 [5]) | IFNγ release [fold change over control], Donor A, 1 nM antibody (cell-bound CD73 [6]) | IFNγ release [fold change over control], Donor B, 1 nM antibody (cell-bound CD73 [6]) | % of max. adenosine inhibition, washed Colo-201 cells (cell-bound CD73 [7]) | Kd (human CD73-His) | further results
"BMS986179" (antibody) | 84% | 40.7% | 61.7% | 99.6% | 98.7% | 95.4% | 22.5% | 58% | 10.9 fold | 5.2 fold | 63% | – | – | – | – | – | – | – | – | – | IFNγ release [fold change over control], Donor C, 1 nM antibody (cell-bound CD73 [1]): 36.4 fold; IFNγ release [fold change over control], Donor D, 1 nM antibody (cell-bound CD73 [1]): 13.3 fold; IFNγ release [fold change over control], Donor E, 1 nM antibody (cell-bound CD73 [1]): 7.2 fold; IFNγ release [fold change over control], Donor F, 1 nM antibody (cell-bound CD73 [1]): 2.9 fold; Max. adenosine inhibition [%] in Colo201 cells (cell-bound CD73 [1]): 68%
"MEDI9447" (antibody) | 62% | 43.9% | 46.7% | 115% | 98% | 85.5% | -34.1% | 17% | 7.7 fold | 5.3 fold | 56% | – | – | – | – | – | – | – | – | – | IFNγ release [fold change over control], Donor C, 1 nM antibody (cell-bound CD73 [1]): 16.2 fold; IFNγ release [fold change over control], Donor D, 1 nM antibody (cell-bound CD73 [1]): 20.7 fold; IFNγ release [fold change over control], Donor E, 1 nM antibody (cell-bound CD73 [1]): 5 fold; IFNγ release [fold change over control], Donor F, 1 nM antibody (cell-bound CD73 [1]): 1.1 fold; Max. adenosine inhibition [%] in Colo201 cells (cell-bound CD73 [1]): 63%
B1 | – | – | – | – | – | – | – | – | – | – | 62% | 1040 pM | 31% | 77% | 55.6% | 62.2% | 12.6 fold | 8.1 fold | 70% | 420 pM | CD8 T cell proliferation [% of control], Donor C, 1 nM antibody (cell-bound CD73 [5]): 95.8%; CD8 T cell proliferation [% of control], Donor D, 1 nM antibody (cell-bound CD73 [5]): 98.5%; CD8 T cell proliferation [% of control], Donor E, 1 nM antibody (cell-bound CD73 [5]): 99.1%; CD8 T cell proliferation [% of control], Donor F, 1 nM antibody (cell-bound CD73 [5]): -8.9%; IFNγ release [fold change over control], Donor C, 1 nM antibody (cell-bound CD73 [6]): 34.1 fold; IFNγ release [fold change over control], Donor D, 1 nM antibody (cell-bound CD73 [6]): 17.7 fold; IFNγ release [fold change over control], Donor E, 1 nM antibody (cell-bound CD73 [6]): 11.1 fold; IFNγ release [fold change over control], Donor F, 1 nM antibody (cell-bound CD73 [6]): 3.1 fold
B2 | – | – | – | – | – | – | – | – | – | – | 77% | 490 pM | 15% | 88% | 103% | 68.5% | 20.3 fold | 7.8 fold | 78% | 63 pM | fold higher binding to human CD73 than to mouse CD73 (mouse CD73): 138 fold
B3 | – | – | – | – | – | – | – | – | – | – | 76% | 490 pM | 20% | 86% | 104% | 86.7% | 20.9 fold | 12 fold | 79% | 72 pM | CD8 T cell proliferation [% of control], Donor C, 1 nM antibody (cell-bound CD73 [5]): 107%; CD8 T cell proliferation [% of control], Donor D, 1 nM antibody (cell-bound CD73 [5]): 99.5%; CD8 T cell proliferation [% of control], Donor E, 1 nM antibody (cell-bound CD73 [5]): 101%; CD8 T cell proliferation [% of control], Donor F, 1 nM antibody (cell-bound CD73 [5]): 84.2%; IFNγ release [fold change over control], Donor C, 1 nM antibody (cell-bound CD73 [6]): 51.3 fold; IFNγ release [fold change over control], Donor D, 1 nM antibody (cell-bound CD73 [6]): 20.9 fold; IFNγ release [fold change over control], Donor E, 1 nM antibody (cell-bound CD73 [6]): 12.8 fold; IFNγ release [fold change over control], Donor F, 1 nM antibody (cell-bound CD73 [6]): 6.7 fold; fold higher binding to human CD73 than to mouse CD73 (mouse CD73): 96 fold
